In article PMC314469, “Protein Interaction Networks by Proteome Peptide Scanning” (PLoS Biology, 2004) one finds normalised SPOT signal, Boehringer light units (BLU); mean over the file's lines of this peptide data, which are given here for 38 molecules.

The chains are these.
T1: amphyphisin SH3 (AMPH_HUMAN), P49418
T1 chain: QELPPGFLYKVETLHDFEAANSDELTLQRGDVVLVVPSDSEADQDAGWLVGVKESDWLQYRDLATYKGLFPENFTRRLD

B1: P51858 162-175 (peptide)
chain: LEDSPKRPKEAENP
B2: O00513 852-865 (peptide)
chain: LEFPPRRPFARRRM
B3: Q9HCK5 75-88 (peptide)
chain: LFQPPRRPGLGTVG
B4: Q969P6 16-29 (peptide)
chain: LGEVPRRPASRGVP
B5: P35998 327-340 (peptide)
chain: LDPALMRPGRLDRK
B6: Q9ULW2 164-177 (peptide)
chain: LFPPLFRPQRPHSA
B7: Q96F28 217-231 (peptide)
chain: LEIPPPKPPAPEMN
B8: Q9ULJ3 268-281 (peptide)
chain: LELALKRPRPPVLS
B9: Q9H6N9 50-63 (peptide)
chain: LFFELRRPPQHGVL
B10: P41440 258-271 (peptide)
chain: LGDSLRRPQLRLWS
B11: Q9Y4W6 459-472 (peptide)
chain: LDPALLRPGRFDRQ
B12: Q9NRD6 13-26 (peptide)
chain: LGKVIRRPPLTEKL
B13: Q9HA41 350-363 (peptide)
chain: LDPALRRPGRFDRE
B14: Q96QH2 497-511 (peptide)
chain: LGHPPAKPPLPPGP
B15: Q8WXI9 364-378 (peptide)
chain: LEIPPPKPPAPLLH
B16: P43686 317-330 (peptide)
chain: LDPALLRPGRLDRK
B17: O14897 560-573 (peptide)
chain: APELLKRPKEYTVR
B18: Q96RW7 67-80 (peptide)
chain: LETSLKRPKRPLFN
B19: O43157 127-140 (peptide)
chain: LEQLLLRPERPGDT
B20: O43931 13-26 (peptide)
chain: LDPALMRPGRFHRQ
B21: Q9P239 478-492 (peptide)
chain: LEESPWKPPTYLFS
B22: Q9P260 301-314 (peptide)
chain: LFNLIKRPDDEQRQ
B23: P47210 301-314 (peptide)
chain: LDSALLRPGRIDRK
B24: P81489 12-26 (peptide)
chain: LFIIPPKPPGRPQG
B25: Q13608 854-867 (peptide)
chain: LDPALLRPGRFDKL
B26: O15504 407-421 (peptide)
chain: LGKIPLKPPPLELL
B27: BAC04326 52-66 (peptide)
chain: LDPLPRRPPAGRRG
B28: Q9NR05 56-70 (peptide)
chain: APLLPPRPPPLPPV
B29: Q9H9E5 251-264 (peptide)
chain: LERRLKRPRTQGVV
B30: Q9BYZ6 230-244 (peptide)
chain: APFLPPKPPPPIIV
B31: Q15018 147-160 (peptide)
chain: LEYVLFRPNRRYNQ
B32: Q8WXD9 1320-1334 (peptide)
chain: LGASPAKPPSPGAP
B33: Q9Y5K1 339-352 (peptide)
chain: LDSILRRPYVTSQP
B34: Q92729 834-847 (peptide)
chain: LGGSPRRPSGRKGS
B35: Q03527 337-350 (peptide)
chain: LDPALIRPGRIDRK
B36: Q96NP9 14-28 (peptide)
chain: APEPPPRPPPALSP
B37: O15047 30-43 (peptide)
chain: LDPALRRPSQKVYR
B38: Q8WVX9 331-344 (peptide)
chain: LEQAFRRPNVNLTS

The target of one assay is endophilin SH3 (SH3G2_HUMAN), Q99962. Briefly: SPOT array.
In turn, B1 yielded a normalised SPOT signal, Boehringer light units (BLU); mean over the file's lines of this peptide of 2.6.
Still for that read-out and setting: the same measure for B2: 3050; for B3: 1840; for B4: 1050.
Still for that read-out and setting: to B5 belongs 346; to B6, 10200; to B7, 43.4.
B8 returned a normalised SPOT signal, Boehringer light units (BLU); mean over the file's lines of this peptide of 129.
On the same count and under the same terms, the same measure for B9: 168; for B10: 6.
On the same count and under the same terms, the same measure for B11: 139; for B12: 277.
The molecule B13 showed a normalised SPOT signal, Boehringer light units (BLU); mean over the file's lines of this peptide of 159.
The same measure, in the same setting: to B14 belongs 264.
Still for that read-out and setting: the same measure for B15: 712.
The same measure, in the same setting: the same measure for B16: 123; for B17: 29.7; for B18: 93.1.
The molecule B19 registered a normalised SPOT signal, Boehringer light units (BLU); mean over the file's lines of this peptide of 147.
B20 displayed a normalised SPOT signal, Boehringer light units (BLU); mean over the file's lines of this peptide of 311.
The same measure, in the same setting: the same measure for B21: 53.3.
Same read-out and setting: to B22 belongs 34; to B23, 117; to B24, 538.
Still for that read-out and setting: the same measure for B25: 0; for B26: 61.2; for B27: 4540.
Molecule B28 gave a normalised SPOT signal, Boehringer light units (BLU); mean over the file's lines of this peptide of 4020.
The same measure, in the same setting: to B29 belongs 20; to B30, 1320; to B31, 54.6.
As for B32, the normalised SPOT signal, Boehringer light units (BLU); mean over the file's lines of this peptide amounted to 102.
On the same count and under the same terms, to B33 belongs 54.4.
Same read-out and setting: to B34 belongs 122.
The same measure, in the same setting: to B35 belongs 75.3.
As to B36, the normalised SPOT signal, Boehringer light units (BLU); mean over the file's lines of this peptide amounted to 2330.
The same measure, in the same setting: to B37 belongs 108.
Same read-out and setting: the same measure for B38: 42.5.

For another assay, the target named is T1, amphyphisin SH3 (AMPH_HUMAN), P49418. The assay can be described thus: SPOT array.
The molecule B1 registered a normalised SPOT signal, Boehringer light units (BLU); mean over the file's lines of this peptide of 12.6.
Still for that read-out and setting: the same measure for B2: 241.
On the same count and under the same terms, the same measure for B3: 1500; for B4: 22.2.
B5: the normalised SPOT signal, Boehringer light units (BLU); mean over the file's lines of this peptide came out at 4700.
B6 gave a normalised SPOT signal, Boehringer light units (BLU); mean over the file's lines of this peptide of 5720.
On the same count and under the same terms, to B7 belongs 31.6; to B8, 29.6.
On the same count and under the same terms, the same measure for B9: 12.7; for B10: 14.9; for B11: 806.
In the case of B12, the normalised SPOT signal, Boehringer light units (BLU); mean over the file's lines of this peptide stood at 4.7.
Same read-out and setting: to B13 belongs 666.
On the same count and under the same terms, to B14 belongs 64.4; to B15, 36.7; to B16, 2030.
The same measure, in the same setting: the same measure for B17: 28; for B18: 1410.
Turning to B19, the normalised SPOT signal, Boehringer light units (BLU); mean over the file's lines of this peptide came to 68.8.
Still for that read-out and setting: the same measure for B20: 2880; for B21: 39.8; for B22: 16.2.
As for B23, the normalised SPOT signal, Boehringer light units (BLU); mean over the file's lines of this peptide worked out at 1620.
As to B24, the normalised SPOT signal, Boehringer light units (BLU); mean over the file's lines of this peptide was 459.
In turn, B25 displayed a normalised SPOT signal, Boehringer light units (BLU); mean over the file's lines of this peptide of 944.
Same read-out and setting: to B26 belongs 72.5.
Still for that read-out and setting: to B27 belongs 1100.
The same measure, in the same setting: to B28 belongs 1400.
On to B29, for which the normalised SPOT signal, Boehringer light units (BLU); mean over the file's lines of this peptide was determined as 34.4.
Still for that read-out and setting: the same measure for B30: 35.1; for B31: 451; for B32: 62.
On the same count and under the same terms, to B33 belongs 10.6.
Same read-out and setting: the same measure for B34: 34.3; for B35: 4590; for B36: 962.
For the molecule B37, the normalised SPOT signal, Boehringer light units (BLU); mean over the file's lines of this peptide is 37.6.
Consider B38, for which the normalised SPOT signal, Boehringer light units (BLU); mean over the file's lines of this peptide was found to be 43.1.
